The subject of series [1] is Purα (PURA). Nature of the series: EMSA. As to conditions: unit not stated, densitometry. For orientation: A gel shift assay detects complexes by their altered migration in electrophoresis.
Series [2] concerns T1, TZIP (synthetic).
T1 sequence: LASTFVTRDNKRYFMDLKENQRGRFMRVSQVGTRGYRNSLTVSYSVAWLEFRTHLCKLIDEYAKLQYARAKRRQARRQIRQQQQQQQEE
Nature of the series: EMSA. As to conditions: unit not stated, densitometry.

pKd: −log10 of the molar value.

“ALS ssDNA (C9ORF72 GGGGCC hexanucleotide repeat)”: the pKd in series [1] (5 mM DTT, 5 mM EDTA, 0.5% Tween 20) is 7.80; in series [2] (printed 5.5×1010, exponent sign lost, 5 mM DTT, 5 mM EDTA, 0.5% Tween 20, TZIP alters Purα shift and stimulates …), 9.26.

For the substance “FXS ssDNA (FMR1 G-rich trinucleotide expanded repeat)”, the pKd in series [1] (printed 1.9×109, exponent sign lost) was 8.72; in series [2] (printed 9.5×1010, exponent sign lost, TZIP stimulates Purα binding), 9.02.

What is called pKd is −log10 of the Kd, conventionally taken in molar units.
